Measurements as given in CN113521276A (JIANGSU QUANXIN BIOMEDICAL CO LTD, dated 2021).

Target: T1, 人干扰素α受体1(IFNAR1) (human, UniProt P17181 28-436)
T1 construct: Soluble antigen run over captured antibody in the Biacore assay; also called 人IFNAR1; Human Interferon alpha/beta Receptor 1
T1 sequence: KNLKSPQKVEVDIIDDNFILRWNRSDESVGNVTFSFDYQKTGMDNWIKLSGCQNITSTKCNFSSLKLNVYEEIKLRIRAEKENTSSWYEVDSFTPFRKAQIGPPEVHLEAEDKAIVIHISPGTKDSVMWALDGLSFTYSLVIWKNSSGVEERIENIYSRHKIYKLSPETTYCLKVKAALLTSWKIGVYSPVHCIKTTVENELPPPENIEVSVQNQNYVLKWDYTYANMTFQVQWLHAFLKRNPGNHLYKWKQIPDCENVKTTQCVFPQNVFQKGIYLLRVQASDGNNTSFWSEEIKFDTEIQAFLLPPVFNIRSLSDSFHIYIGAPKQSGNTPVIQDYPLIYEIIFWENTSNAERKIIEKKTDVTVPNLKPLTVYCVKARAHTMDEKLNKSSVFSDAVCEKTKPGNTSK
Experiment: SPR, Biacore T200, antibody captured on Protein A chip, antigen in solution, 25℃, 1:1 model, mean of three runs

Kd: 0.108 nM
koff: 3.76e-05 s⁻¹
kon: 347000 M⁻¹ s⁻¹
B1: QX006N(HZD1203-45-IgG4.1) (antibody, V domains shown)
VH: EVQLVESGGGLVQPGGSLRLSCAASGFSLSSYYMTWVRQAPGKGLEWVSVINVYGGTYYASWAKGRFTISRDNSKNTLYLQMNSLRAEDTAVYYCAREDVAVYMAIDLWGQGTLVTVSS
VL: AIQMTQSPSSLSASVGDRVTITCQASQSISNQLSWYQQKPGKAPKLLIYDASSLASGVPSRFSGSRSGTKFTLTISSLQPEDFATYYCLGIYGDGADDGIAFGGGTKVEIK
notes: Humanised rabbit antibody from clone 1203#; also called 抗人干扰素α受体1(IFNAR1)单克隆抗体
